# Laboratory results: patent US9555076B2, “Neuregulin based methods and compositions for treating cardiovascular diseases” (Zensun (Shanghai) Science & Technology, Co., Ltd., priority 2002, dated 2017)
# B1: rhNRG-1 β: Recombinant human neuregulin fragment of 61 amino acid (SEQ ID NO:4), 3 disulfide bonds, expressed in E. coli (protein, listed as Homo sapiens)
# chain: SHLVKCAEKEKTFCVNGGECFMVKDLSNPSRYLCKCPNEFTGDRCQNYVMASFYKAEELYQ
# modifications: disulfide (positions not given here)
# Tested on: heart failure in rat caused by ligation of coronary artery
# Test: Nagar-Oslen staining of ischemic hypoxic myocardium
# Format: in vivo, SD rat
# Text: After fixed with 10% formaldehyde, myocardium of the rat was longitudinally cut with equal distance into 3 slices, conventionally embedded with paraffin, section made, HE stained, image analysis for area of fibrotic region of the heart, counted the number of capillary in the fibrotic lesion (counting unit: piece/mm^2); Nagar-Oslen stained, studied the size of ischemic hypoxic region in the myocardium.
# In Nagar-Oslen stained section, normal myocardium stained with light yellow color, while ischemic hypoxic area stained deeper with reddish color. Ischemic hypoxic changes could be analyzed with this method and comparison of qualitative and semi-quantitative test could be made.
molecule,measurement,setting,value
B1,"red stained (ischemic hypoxic) tissue, Nagar-Oslen stain",5 μg/kg,patchy distribution
same,"red stained (ischemic hypoxic) tissue, Nagar-Oslen stain",10 μg/kg,patchy distribution
same,"red stained (ischemic hypoxic) myocardial cells, Nagar-Oslen stain",20 μg/kg,punctuate distribution
